In US4348387A, “Method and system for the controlled release of biologically active substances to a body fluid” (The Rockefeller University, priority 1979, dated 1982):
Values joined by “and” are separate entries in the source; they are usually repeats but may differ in a detail not shown here. Identical values can stand only once.

Legend:
[1] = target: Concanavalin A (Canavalia ensiformis, UniProt P02866); experiment: binding to and glucose elution from columns of immobilized Concanavalin A; set-up: species or system Jack Bean
Protocol: At the point indicated by the arrow, 0.2 M glucose in the column buffer was begun. Fractions (2.0 ml) were collected at a flow rate of 10-15 ml/h.
Displacement of hormone was accomplished using 1.0 ml pulses of column buffer containing varying amounts of glucose. Glucose content is indicated over the appropriate arrows. Fractions (1.7 ml) were collected at a flow rate of 10-15 ml/h.

[2] = tested on: blood glucose; experiment: blood-glucose depression assay modified from the U.S. Pharmacopeia; conditions: individual animals A-F; overnight fast; 0.1mg protein/100gm body weight subcutaneous; 60 minutes after injection; each animal its own control
Protocol: The conjugate prepared in I was tested using the blood-glucose depression assay modified from the U.S. Pharmoacopeia (Vol. XVIII, 883-884 (1967)).
*After an overnight fast, each animal received 0.1mg protein/100gm body
weight by subcutaneous injection. Each of the animals served as its own
control, receiving the maltoseinsulin derivative on day 1, and control
insulin on day 2. Blood glucose depression was determined 60 minutes afte
injection using a Beckman Glucose Analyzer 2.

insulin [Control insulin]
binding to immobilized Concanavalin A ([1]; 20 mg applied to column, buffer wash, 25 mM sodium phosphate pH 7.4): did not bind to Concanavalin A
elution from Concanavalin A by glucose ([1]; 0.2 M glucose in column buffer, 1,000:1 molar excess of glucose): none was eluted by the addition of glucose
BLOOD GLUCOSE DEPRESSION [2]: 75 mg % and 70 mg % and 79 mg % and 64 mg % and 73 mg %
